Measurements as given in US20250066499A1 (SUNSHINE GUOJIAN PHARMACEUTICAL SHANGHAI, published 2025).
Where a chain is given by its changes, count along the chain named.

Legend:
CD73-ND-Y132A = biological target: T1, CD73-ND-Y132A (human, UniProt P21589 27-317); assay: ELISA; decline multiple of Top against CD73-ND
T1 construct: Alanine mutant of CD73-ND
T1 sequence: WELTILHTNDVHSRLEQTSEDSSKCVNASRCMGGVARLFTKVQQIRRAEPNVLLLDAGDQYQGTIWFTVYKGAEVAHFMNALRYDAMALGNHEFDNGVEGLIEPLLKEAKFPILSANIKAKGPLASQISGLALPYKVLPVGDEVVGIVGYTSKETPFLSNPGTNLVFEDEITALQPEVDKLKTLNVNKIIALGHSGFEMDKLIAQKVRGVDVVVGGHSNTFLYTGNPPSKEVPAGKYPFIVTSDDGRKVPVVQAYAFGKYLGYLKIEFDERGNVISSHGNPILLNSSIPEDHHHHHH
Protocol: (§1) The ELISA plates were coated with SA protein diluted to 1.5 μg/mL in coating buffer (50 mM carbonate coating buffer, pH 9.6) and incubated overnight at 4° C. The supernatant was discarded, and the plates were washed three times with PBST. Then, 5% skimmed milk powder prepared with PBS was added for blocking and the plates were incubated for 2 h at 37° C. After washing the plates once with PBST, CD73-biotin protein (prepared by biotinylating CD73-His protein according to the EZ-Link NHS-Biotin Reagent instructions) was diluted to 0.5 μg/mL and added at 100 μL/well for incubation at room temperature for 1 h. The plates were washed three times with PBST, and the prepared murine-derived monoclonal antibodies against human CD73 were serially diluted with 1% BSA buffer prepared with PBST and added to the ELISA plates at 100 μl/well. The plates were incubated at 37° C. for 1 h. After washing the plates three times with PBST, HRP-labeled goat anti-mouse IgG secondary antibody was added and the plates were incubated for 30 min at 37° C. After washing the plates three times with PBST, the residual droplets were patted dry on absorbent paper as much as possible. Then, 100 μl of TMB color developing solution was added to each well, and the plates were incubated in the dark at room temperature for 5 min for color development. Subsequently, 50 μl of 2M H₂SO₄ stop solution was added to each well to terminate the substrate reaction. The OD values were read at 450 nm using a multimode microplate reader to analyze the binding ability of the tested antibodies to the target antigen human CD73-His.
(§2) Referring to the experimental method in Example 3, the affinity of 48A11-HuV33 for various mutant proteins of CD73-ND was determined. The SA protein was diluted to 1 μg/mL for coating the ELISA plates, and the biotinylated CD73 protein (CD73-biotin) was used at a concentration of 0.1 μg/mL.

CD73-ND-K136A = biological target: T2, CD73-ND-K136A (human, UniProt P21589 27-317); assay: ELISA; decline multiple of Top against CD73-ND
T2 construct: Alanine mutant of CD73-ND
T2 sequence: T1 sequence with A132Y, K136A
Protocol: as §1, §2

CD73-ND-E143A = biological target: T3, CD73-ND-E143A (human, UniProt P21589 27-317); assay: ELISA; decline multiple of EC50 against CD73-ND
T3 construct: Alanine mutant of CD73-ND
T3 sequence: T1 sequence with A132Y, E143A
Protocol: as §1, §2

CD73-ND-K180A = biological target: T4, CD73-ND-K180A (human, UniProt P21589 27-317); assay: ELISA; decline multiple of EC50 against CD73-ND
T4 construct: Alanine mutant of CD73-ND
T4 sequence: T1 sequence with A132Y, K180A
Protocol: as §1, §2

CD73-ND-L181A = biological target: T5, CD73-ND-L181A (human, UniProt P21589 27-317); assay: ELISA; decline multiple of EC50 against CD73-ND
T5 construct: Alanine mutant of CD73-ND
T5 sequence: T1 sequence with A132Y, L181A
Protocol: as §1, §2

CD73-ND-T183A = biological target: T6, CD73-ND-T183A (human, UniProt P21589 27-317); assay: ELISA; decline multiple of EC50 against CD73-ND
T6 construct: Alanine mutant of CD73-ND
T6 sequence: T1 sequence with A132Y, T183A
Protocol: as §1, §2

B1: 48A11-HuV33 (antibody, human IgG4, V domains shown)
VH: QVQLVQSGAEVKKPGASVKVSCKASGYTFTSYWMHWVRQAPGQGLEWIGEINPSIGRTNYNEKFKSRVTLTRDTSTSTAYMELSSLRSEDTAVYYCARRVYGTMDYWGQGTLVTVSS
VL: DIQMTQSPSSLSASVGDRVTITCKASQDINSYLSWFQQKPGKSPKLLIYRANIWVDGVPSRFSGSGSGQDYTFTISSLQPEDIATYYCLQYDELYTFGQGTKVEIK
notes: Humanized
B1 was tested, and the “Ratio(Top)” value (CD73-ND-Y132A) was 8.2 fold, the “Ratio(Top)” value (CD73-ND-K136A) was 1 fold and the “Ratio(EC50)” value (CD73-ND-E143A) was 1.4 fold. The “Ratio(EC50)” value (CD73-ND-K180A) was 2.7 fold, the “Ratio(EC50)” value (CD73-ND-L181A) was 1.9 fold and the “Ratio(EC50)” value (CD73-ND-T183A) was 1.4 fold.
